In US20070298499, “Methods and compositions for regulating gene expression in plant cells” (published 2007):

Experiments:
[1] = biological target: T1, RF2b (expressed in BY-2 protoplasts) (UniProt Q6S4P4); assay: cell_activity; settings: GUS reporter in BY-2 protoplasts
T1 sequence: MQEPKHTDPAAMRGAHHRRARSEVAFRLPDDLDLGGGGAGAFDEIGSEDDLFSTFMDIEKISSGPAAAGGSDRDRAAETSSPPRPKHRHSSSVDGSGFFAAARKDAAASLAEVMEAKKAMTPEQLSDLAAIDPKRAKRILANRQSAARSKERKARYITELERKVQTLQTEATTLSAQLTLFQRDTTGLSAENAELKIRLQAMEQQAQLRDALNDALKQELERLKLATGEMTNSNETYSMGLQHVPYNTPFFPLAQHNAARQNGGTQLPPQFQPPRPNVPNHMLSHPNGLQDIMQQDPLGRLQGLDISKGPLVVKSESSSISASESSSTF

[2] = biological target: T2, RF2b (UniProt Q6S4P4 SEQ:1-329); assay: SPR; value only in figure; lower affinity than RF2a; slow on, relatively fast off; settings: chain copies: 2 (inferred, bZIP dimer); label: biotin (SPR)
T2 chain: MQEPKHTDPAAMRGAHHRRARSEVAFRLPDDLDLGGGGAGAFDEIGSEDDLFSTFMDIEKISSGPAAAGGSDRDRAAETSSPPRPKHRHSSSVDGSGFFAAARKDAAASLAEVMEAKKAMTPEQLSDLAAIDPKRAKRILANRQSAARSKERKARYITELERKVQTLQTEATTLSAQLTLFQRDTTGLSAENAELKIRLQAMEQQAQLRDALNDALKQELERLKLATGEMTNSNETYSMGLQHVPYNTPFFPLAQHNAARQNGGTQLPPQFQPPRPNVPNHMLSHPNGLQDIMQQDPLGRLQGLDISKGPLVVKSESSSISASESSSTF
Protocol: (§1) To compare the binding affinities of RF2a and RF2b with the Box II element and its mutants, real time Surface Plasmon Resonance (“SPR”) measurements were conducted using a BIAcore 2000 instrument. The binding affinities of RF2a and RF2b to these DNA targets were measured on chips on which biotin labeled-Box II, -Box IIm1 and -Box IIm2 elements were immobilized.
(§2) The association and de-association constants were determined using BIAevaluation 3.1 software—using 1:1 binding with a mass transfer model. In general, RF2a has relatively higher binding affinities to the Box II, Box IIm1 and Box IIm2 elements when compared to RF2b. Furthermore, the DNA binding behavior of RF2a and RF2b are quite different from each other. RF2a appears to bind rapidly to the DNA target and slowly dissociates from the target, while RF2b binds slowly to the DNA target and releases from the target relatively quickly. The differences in the affinity of RF2a to the Box II element and its mutants, however, are not as dramatic as the differences of RF2b, while the relative order of affinities to the different target elements is the same for both proteins (FIG. 8).

[3] = biological target: T3, RF2a-ΔP (proline-rich domain deleted) (UniProt Q69IL4 SEQ:1-320); assay: EMSA; 100 ng protein, 5% acrylamide gel; settings: tags: N-terminal His6 (pET28a); chain copies: 2 (inferred, bZIP dimer); label: biotin (SPR); 32P (EMSA)
T3 chain: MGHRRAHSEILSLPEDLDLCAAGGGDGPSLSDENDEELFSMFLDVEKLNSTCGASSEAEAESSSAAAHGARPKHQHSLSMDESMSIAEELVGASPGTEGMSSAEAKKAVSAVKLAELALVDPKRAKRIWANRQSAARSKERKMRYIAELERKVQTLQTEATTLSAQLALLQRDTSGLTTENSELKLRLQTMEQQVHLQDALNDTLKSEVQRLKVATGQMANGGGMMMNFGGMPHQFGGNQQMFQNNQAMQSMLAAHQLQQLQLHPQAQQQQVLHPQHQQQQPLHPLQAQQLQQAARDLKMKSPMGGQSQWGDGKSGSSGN
Protocol: (§3) The purified mutant proteins were then analyzed by SDS-PAGE to confirm that each protein was its expected size (FIG. 16(B)). To confirm that each of the mutant proteins bind to the DNA target, i.e., the Box II element and/or its operational derivatives, gel mobility shift assays were carried out with the purified recombinant proteins (FIG. 16(C)). The electrophoretic mobility shift assays were carried out essentially as described in Yin and Beachy (1995). 100 ng of proteins purified from the transformed E. coli were incubated with ³²P-labeled Box IIm1 DNA probe followed by electrophoresis in a 5% acrylamide gel (Yin et al., 1997) (FIG. 16(C)).

[4] = biological target: T4, RF2a-ΔQ (glutamine-rich domain deleted) (UniProt Q69IL4 SEQ:1-283); assay: EMSA; 100 ng protein, 5% acrylamide gel; settings: tags: N-terminal His6 (pET28a); chain copies: 2 (inferred, bZIP dimer); label: biotin (SPR); 32P (EMSA)
T4 chain: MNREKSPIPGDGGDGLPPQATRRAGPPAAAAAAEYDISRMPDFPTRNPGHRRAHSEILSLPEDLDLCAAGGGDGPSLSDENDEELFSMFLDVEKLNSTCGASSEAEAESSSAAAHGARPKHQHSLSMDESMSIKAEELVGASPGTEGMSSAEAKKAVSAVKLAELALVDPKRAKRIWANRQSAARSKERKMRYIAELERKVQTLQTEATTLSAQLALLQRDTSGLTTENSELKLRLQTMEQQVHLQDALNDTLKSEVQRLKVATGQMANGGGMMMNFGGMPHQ
Protocol: as §3

[5] = biological target: T5, RF2a-ΔPΔA (proline-rich and acidic domains deleted) (UniProt Q69IL4 SEQ:1-261); assay: EMSA; 100 ng protein, 5% acrylamide gel; settings: tags: N-terminal His6 (pET28a); chain copies: 2 (inferred, bZIP dimer); label: biotin (SPR); 32P (EMSA)
T5 chain: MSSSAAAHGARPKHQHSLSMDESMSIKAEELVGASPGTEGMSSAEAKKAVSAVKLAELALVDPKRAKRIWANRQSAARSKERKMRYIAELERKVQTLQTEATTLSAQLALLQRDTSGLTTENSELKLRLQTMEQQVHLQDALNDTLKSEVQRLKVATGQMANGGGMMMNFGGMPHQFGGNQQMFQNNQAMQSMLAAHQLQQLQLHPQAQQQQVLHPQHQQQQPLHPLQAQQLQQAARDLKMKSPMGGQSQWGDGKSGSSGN
Protocol: as §3

[6] = biological target: T6, RF2a-ΔPΔQ (proline- and glutamine-rich domains deleted) (UniProt Q69IL4 SEQ:1-236); assay: EMSA; 100 ng protein, 5% acrylamide gel; settings: tags: N-terminal His6 (pET28a); chain copies: 2 (inferred, bZIP dimer); label: biotin (SPR); 32P (EMSA)
T6 chain: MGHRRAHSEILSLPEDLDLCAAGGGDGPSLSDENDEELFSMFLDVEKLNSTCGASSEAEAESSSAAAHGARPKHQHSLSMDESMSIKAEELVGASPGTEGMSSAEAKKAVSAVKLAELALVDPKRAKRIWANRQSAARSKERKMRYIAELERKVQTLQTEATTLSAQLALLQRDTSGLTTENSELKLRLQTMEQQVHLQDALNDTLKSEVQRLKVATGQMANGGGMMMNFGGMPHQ
Protocol: as §3

[7] = biological target: T2, RF2b; assay: SPR; value only in figure; lower affinity than RF2a; settings: chain copies: 2 (inferred, bZIP dimer), label: biotin (SPR)
Protocol: as §1, §2

## ACGAATCAATAAAGAAGGACCAGAAGATATAAAGCTGGAACATCTTCACATGCTACCACATGGCTAGCATCTTTACTTTAGCATCTCTATTATTGTAAGAGTGTATAATGAGGAGTGTGCCCCTTCACTCCAGTATATAAGGAGCACCAGAGTAGTGTAATAGATCATCGATCAAGCAAGCGAGAGCTCAAACTTCTAAGAGAGCAAGA (double strand) [E fragment with Box IIm2]
[1]
  activity (fold activation): 5.8

## ACGAATCAATAAAGAAGGACCAGAAGATATAAAGCTGGAACATCTTCACATGCTACCACATGGCTAGCATCTTTACTTTAGCATCTCTATTATTGTAAGAGTGTATAATGACCAGTGTGGCGCTGGACTCCAGTATATAAGGAGCACCAGAGTAGTGTAATAGATCATCGATCAAGCAAGCGAGAGCTCAAACTTCTAAGAGAGCAAGA (double strand) [E fragment with Box IIm1]
[1]
  activity (fold activation): 7

B1: Box II (dsDNA)
DNA 1: CCAGTGTGCCCCTGG
DNA 2: CCAGGGGCACACTGG
[2]
  binding result: binds

B2: Box IIm1 (dsDNA)
DNA 1: CCAGTGTGGCGCTGG
DNA 2: CCAGCGCCACACTGG
[3]
  binding result: binds
[4]
  binding result: binds
[5]
  binding result: binds
[6]
  binding result: binds
[7]; 32P (EMSA)
  binding result: binds

B3: Box IIm2 (dsDNA)
DNA 1: GGAGTGTGCCCCTTC
DNA 2: GAAGGGGCACACTCC
[7]
  binding result: binds
